From article PMC3464605, “Thermodynamic analysis of DNA binding by a Bacillus single stranded DNA binding protein”
Several values for one entry are separate records, joined by “and”; a condition that tells them apart may be missing. Equal entries are not always repeated.

How the values were obtained:
SSB_BA [1] = target: T1, SSB_BA (Bacillus anthracis, UniProt Q81JI3 1-172); assay: fluorescence anisotropy; […]) or 1 nM ([…]; FRET at 25 C; pH not given; settings: protein: recombinant; tags: none stated (pET29b); label: 5'-fluorescein
T1 sequence: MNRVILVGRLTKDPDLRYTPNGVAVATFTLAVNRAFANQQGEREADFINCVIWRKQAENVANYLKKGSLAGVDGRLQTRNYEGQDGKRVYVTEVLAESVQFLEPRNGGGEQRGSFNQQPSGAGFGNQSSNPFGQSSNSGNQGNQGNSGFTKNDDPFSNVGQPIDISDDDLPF

SSB_BA [2] = target: T1, SSB_BA; assay: FRET titration; […]) or 1 nM ([…]; FRET at 25 C; pH not given; settings: protein: recombinant; tags: none stated (pET29b); label: 5'-Cy5; 3'-Cy3
SSB_EC = SSB_EC (Escherichia coli, UniProt P0AGE0 2-178); assay: FRET titration; 25 C, 40 nM DNA (200 nM in Results text); high FRET peak at 0.44 uM, (SSB)35 mode at >=1.1 uM; Anisotropy: buffer B (composition not in material), 25 mM KCl, 5 mM Mg2+, 25 C, 0.1 nM (Results) or 1 nM (Methods) Fl-(dT)20; temperature series 20-37 C with 25 mM NaCl and glycerol; salt series 0-200/250 mM NaCl at 25 C; FRET at 25 C; pH not given; settings: chain copies: 4; label: 5'-Cy5; 3'-Cy3
Chain of SSB_EC (P0AGE0 2-178): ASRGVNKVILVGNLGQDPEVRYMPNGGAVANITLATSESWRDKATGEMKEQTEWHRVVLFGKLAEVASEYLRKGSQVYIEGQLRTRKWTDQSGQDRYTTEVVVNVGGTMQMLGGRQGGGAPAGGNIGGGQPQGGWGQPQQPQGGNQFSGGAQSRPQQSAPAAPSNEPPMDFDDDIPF

B1: Fl-(dT)20 (ssDNA)
DNA: TTTTTTTTTTTTTTTTTTTT
SSB_BA [1]
  Kd: 1 nM and 1.2 nM

B2: Cy5-(dT)70-Cy3 (ssDNA)
DNA: TTTTTTTTTTTTTTTTTTTTTTTTTTTTTTTTTTTTTTTTTTTTTTTTTTTTTTTTTTTTTTTTTTTTTT
SSB_BA [2]
  binding result: binds
SSB_EC
  binding result: binds
